For assay [1], the target named is Odinarchaeota LCB_4 Vps23(TSG101) (Odinarchaeota archaeon LCB_4). Briefly: SEC-MALS.
Assay [2] addresses Heimdallarchaeota AB125 Vps22 (HeimAB125_14050) (Heimdallarchaeota AB125). Nature of the assay: cross-linking.
Assay [3] has the same target. Nature of the assay: SEC-MALS. On the technique in general: In gel filtration, larger molecules generally elute earlier.

Data on three substances can be found in doi:10.1101/2021.08.17.456605.

In assay [1], “Odinarchaeota LCB_4 Vps28 (natural protein)” came in with a stoichiometry N (Vps28 per Vps23 dimer) of 1. The term stoichiometry N denotes the number of molecules, sites or subunits per partner or assembly. In assay [1], “Odinarchaeota LCB_4 Vps23(TSG101) (natural protein)” displayed a stoichiometry N of 2. Take “Heimdallarchaeota AB125 Vps22 (HeimAB125_14050) (natural protein)”: the stoichiometry N in assay [2] and in assay [3] was 2 in each case.
